Measurements published in article PMC13397619.

B1: NLV3 TCR beta chain (CDR3β only) (parent)
chain: ASSPTGGSPSPLH

Variants of: B1
Assay: T-Switch: Jurkat TCRβ−/− cells expressing a CDR3 saturation-mutagenesis library, stained with two peptide-HLA-A*02:01 tetramers (original and novel peptide) plus anti-CD3, FACS-sorted into four gates, gDNA sequenced
Conditions: tetramers 1 µg/mL, 30 min on ice, SP, DP and SW gates expanded about 10 days between rounds ('two to three rounds of selection' in the Methods), unresolved parent, parent is a CDR3 fragment, scale: fold enrichment, numbering: sequential-on-construct, sequence starts at 1
[1] = with both tetramers (double-negative gate, binds neither): HLA-A*02:01 with … and with …, gate DN: OPPOSITE: higher = more of the variant in the gate that binds neither peptide = LESS binding (or no expression; inferred). Fold enrichment of the CDR3 variant in one FACS gate of a two-tetram
[2] = with both tetramers (double-positive gate): HLA-A*02:01 with … and with …, gate DP: higher = more of the variant in the gate that binds both peptides. Fold enrichment of the CDR3 variant in one FACS gate of a two-tetramer stain. SP/DP/SW gates were expanded and re-sorted bef

[…] (CDR3 as printed); S10L derived by comparing it with the table's wild-type CDR3 ASSPTGGSPSPLH
enrichment [1]: 0.468
enrichment [2]: 0

[…] (CDR3 as printed); L12Q derived by comparing it with the table's wild-type CDR3 ASSPTGGSPSPLH
enrichment [1]: 0.615
enrichment [2]: 0

[…] (CDR3 as printed); P9H derived by comparing it with the table's wild-type CDR3 ASSPTGGSPSPLH
enrichment [1]: 0.681
enrichment [2]: 0

[…] (CDR3 as printed); S8T derived by comparing it with the table's wild-type CDR3 ASSPTGGSPSPLH
enrichment [1]: 1.42
enrichment [2]: 0

[…] (CDR3 as printed); H13P derived by comparing it with the table's wild-type CDR3 ASSPTGGSPSPLH
enrichment [1]: 1
enrichment [2]: 0

[…] (CDR3 as printed); A1E derived by comparing it with the table's wild-type CDR3 ASSPTGGSPSPLH
enrichment [1]: 1.07
enrichment [2]: 0

[…] (CDR3 as printed); T5I derived by comparing it with the table's wild-type CDR3 ASSPTGGSPSPLH
enrichment [1]: 0.355
enrichment [2]: 0

[…] (CDR3 as printed); S3D derived by comparing it with the table's wild-type CDR3 ASSPTGGSPSPLH
enrichment [1]: 0.675
enrichment [2]: 0

[…] (CDR3 as printed); P11N derived by comparing it with the table's wild-type CDR3 ASSPTGGSPSPLH
enrichment [1]: 1.51
enrichment [2]: 0

[…] (CDR3 as printed); P9R derived by comparing it with the table's wild-type CDR3 ASSPTGGSPSPLH
enrichment [1]: 1.13
enrichment [2]: 0

[…] (CDR3 as printed); L12P derived by comparing it with the table's wild-type CDR3 ASSPTGGSPSPLH
enrichment [1]: 1.2
enrichment [2]: 0

[…] (CDR3 as printed); L12E derived by comparing it with the table's wild-type CDR3 ASSPTGGSPSPLH
enrichment [1]: 1.1
enrichment [2]: 0

[…] (CDR3 as printed); L12F derived by comparing it with the table's wild-type CDR3 ASSPTGGSPSPLH
enrichment [1]: 1.49
enrichment [2]: 0

[…] (CDR3 as printed); L12Y derived by comparing it with the table's wild-type CDR3 ASSPTGGSPSPLH
enrichment [1]: 1.11
enrichment [2]: 0

[…] (CDR3 as printed); A1F derived by comparing it with the table's wild-type CDR3 ASSPTGGSPSPLH
enrichment [1]: 0.897
enrichment [2]: 0

[…] (CDR3 as printed); P11W derived by comparing it with the table's wild-type CDR3 ASSPTGGSPSPLH
enrichment [1]: 0.701
enrichment [2]: 0

[…] (CDR3 as printed); S2G derived by comparing it with the table's wild-type CDR3 ASSPTGGSPSPLH
enrichment [1]: 0.981
enrichment [2]: 0

[…] (CDR3 as printed); L12M derived by comparing it with the table's wild-type CDR3 ASSPTGGSPSPLH
enrichment [1]: 0.583
enrichment [2]: 0

[…] (CDR3 as printed); P4N derived by comparing it with the table's wild-type CDR3 ASSPTGGSPSPLH
enrichment [1]: 1.17
enrichment [2]: 0

[…] (CDR3 as printed); G6Q derived by comparing it with the table's wild-type CDR3 ASSPTGGSPSPLH
enrichment [1]: 1.2
enrichment [2]: 0

[…] (CDR3 as printed); G6F derived by comparing it with the table's wild-type CDR3 ASSPTGGSPSPLH
enrichment [1]: 1.27
enrichment [2]: 0

[…] (CDR3 as printed); P4I derived by comparing it with the table's wild-type CDR3 ASSPTGGSPSPLH
enrichment [1]: 0.965
enrichment [2]: 0

[…] (CDR3 as printed); T5A derived by comparing it with the table's wild-type CDR3 ASSPTGGSPSPLH
enrichment [1]: 0.817
enrichment [2]: 0

[…] (CDR3 as printed); S2P derived by comparing it with the table's wild-type CDR3 ASSPTGGSPSPLH
enrichment [1]: 0.795
enrichment [2]: 0

[…] (CDR3 as printed); S10V derived by comparing it with the table's wild-type CDR3 ASSPTGGSPSPLH
enrichment [1]: 0.96
enrichment [2]: 0

[…] (CDR3 as printed); P9I derived by comparing it with the table's wild-type CDR3 ASSPTGGSPSPLH
enrichment [1]: 1.11
enrichment [2]: 0

[…] (CDR3 as printed); H13D derived by comparing it with the table's wild-type CDR3 ASSPTGGSPSPLH
enrichment [1]: 0.745
enrichment [2]: 0

[…] (CDR3 as printed); S3P derived by comparing it with the table's wild-type CDR3 ASSPTGGSPSPLH
enrichment [1]: 0.64
enrichment [2]: 0

[…] (CDR3 as printed); L12N derived by comparing it with the table's wild-type CDR3 ASSPTGGSPSPLH
enrichment [1]: 0.99
enrichment [2]: 0

[…] (CDR3 as printed); A1M derived by comparing it with the table's wild-type CDR3 ASSPTGGSPSPLH
enrichment [1]: 1.12
enrichment [2]: 0

[…] (CDR3 as printed); G7E derived by comparing it with the table's wild-type CDR3 ASSPTGGSPSPLH
enrichment [1]: 1.08
enrichment [2]: 0

[…] (CDR3 as printed); S3G derived by comparing it with the table's wild-type CDR3 ASSPTGGSPSPLH
enrichment [1]: 0.543
enrichment [2]: 0

[…] (CDR3 as printed); S8P derived by comparing it with the table's wild-type CDR3 ASSPTGGSPSPLH
enrichment [1]: 1.03
enrichment [2]: 0

[…] (CDR3 as printed); A1W derived by comparing it with the table's wild-type CDR3 ASSPTGGSPSPLH
enrichment [1]: 0.805
enrichment [2]: 0

[…] (CDR3 as printed); P4Y derived by comparing it with the table's wild-type CDR3 ASSPTGGSPSPLH
enrichment [1]: 0.624
enrichment [2]: 0

[…] (CDR3 as printed); P11Y derived by comparing it with the table's wild-type CDR3 ASSPTGGSPSPLH
enrichment [1]: 0.787
enrichment [2]: 0

[…] (CDR3 as printed); P4S derived by comparing it with the table's wild-type CDR3 ASSPTGGSPSPLH
enrichment [1]: 0.973
enrichment [2]: 0

[…] (CDR3 as printed); S3H derived by comparing it with the table's wild-type CDR3 ASSPTGGSPSPLH
enrichment [1]: 0.931
enrichment [2]: 0

[…] (CDR3 as printed); T5N derived by comparing it with the table's wild-type CDR3 ASSPTGGSPSPLH
enrichment [1]: 0.924
enrichment [2]: 0

[…] (CDR3 as printed); G7H derived by comparing it with the table's wild-type CDR3 ASSPTGGSPSPLH
enrichment [1]: 0.687
enrichment [2]: 0

[…] (CDR3 as printed); A1T derived by comparing it with the table's wild-type CDR3 ASSPTGGSPSPLH
enrichment [1]: 0.774
enrichment [2]: 0

[…] (CDR3 as printed); P9V derived by comparing it with the table's wild-type CDR3 ASSPTGGSPSPLH
enrichment [1]: 0.664
enrichment [2]: 0

[…] (CDR3 as printed); G6R derived by comparing it with the table's wild-type CDR3 ASSPTGGSPSPLH
enrichment [1]: 0.796
enrichment [2]: 0

[…] (CDR3 as printed); S8F derived by comparing it with the table's wild-type CDR3 ASSPTGGSPSPLH
enrichment [1]: 0.97
enrichment [2]: 0

[…] (CDR3 as printed); G6Y derived by comparing it with the table's wild-type CDR3 ASSPTGGSPSPLH
enrichment [1]: 0.661
enrichment [2]: 0

[…] (CDR3 as printed); P9D derived by comparing it with the table's wild-type CDR3 ASSPTGGSPSPLH
enrichment [1]: 0.994
enrichment [2]: 0

[…] (CDR3 as printed); P11C derived by comparing it with the table's wild-type CDR3 ASSPTGGSPSPLH
enrichment [1]: 0.758
enrichment [2]: 0

[…] (CDR3 as printed); T5F derived by comparing it with the table's wild-type CDR3 ASSPTGGSPSPLH
enrichment [1]: 0.464
enrichment [2]: 0

[…] (CDR3 as printed); G7M derived by comparing it with the table's wild-type CDR3 ASSPTGGSPSPLH
enrichment [1]: 0.978
enrichment [2]: 0

[…] (CDR3 as printed); S3Y derived by comparing it with the table's wild-type CDR3 ASSPTGGSPSPLH
enrichment [1]: 0.895
enrichment [2]: 0

[…] (CDR3 as printed); P11G derived by comparing it with the table's wild-type CDR3 ASSPTGGSPSPLH
enrichment [1]: 1.17
enrichment [2]: 0

[…] (CDR3 as printed); H13Y derived by comparing it with the table's wild-type CDR3 ASSPTGGSPSPLH
enrichment [1]: 0.87
enrichment [2]: 0

[…] (CDR3 as printed); L12S derived by comparing it with the table's wild-type CDR3 ASSPTGGSPSPLH
enrichment [1]: 0.878
enrichment [2]: 0

[…] (CDR3 as printed); P9A derived by comparing it with the table's wild-type CDR3 ASSPTGGSPSPLH
enrichment [1]: 0.394
enrichment [2]: 114

[…] (CDR3 as printed); A1L derived by comparing it with the table's wild-type CDR3 ASSPTGGSPSPLH
enrichment [1]: 0.861
enrichment [2]: 0

[…] (CDR3 as printed); S2Q derived by comparing it with the table's wild-type CDR3 ASSPTGGSPSPLH
enrichment [1]: 0.653
enrichment [2]: 0

[…] (CDR3 as printed); T5E derived by comparing it with the table's wild-type CDR3 ASSPTGGSPSPLH
enrichment [1]: 0.994
enrichment [2]: 0

[…] (CDR3 as printed); S3W derived by comparing it with the table's wild-type CDR3 ASSPTGGSPSPLH
enrichment [1]: 0.749
enrichment [2]: 0
